Article PMC12557302

Target: CD36 on human monocytes / monocyte membrane extract (Homo sapiens, UniProt P16671 1-472)
Test: pull-down with mass spectrometry

Chain of CD36 on human monocytes / monocyte membrane extract (P16671 whole entry): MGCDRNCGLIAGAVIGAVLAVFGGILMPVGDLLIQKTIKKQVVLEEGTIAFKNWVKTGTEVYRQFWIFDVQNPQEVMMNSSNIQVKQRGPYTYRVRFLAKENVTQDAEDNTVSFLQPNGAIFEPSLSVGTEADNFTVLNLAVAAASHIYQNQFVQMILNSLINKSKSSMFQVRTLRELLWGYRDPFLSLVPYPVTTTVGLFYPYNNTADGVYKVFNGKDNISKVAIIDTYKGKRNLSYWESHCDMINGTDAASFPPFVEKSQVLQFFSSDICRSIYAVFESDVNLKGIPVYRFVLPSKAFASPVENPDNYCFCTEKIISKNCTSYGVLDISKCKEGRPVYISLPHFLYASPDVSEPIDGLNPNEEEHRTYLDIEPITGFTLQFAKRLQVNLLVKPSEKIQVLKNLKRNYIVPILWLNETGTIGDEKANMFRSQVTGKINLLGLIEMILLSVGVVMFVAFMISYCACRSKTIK

B1: CD36Apt (Mono.A2) (ssDNA)
DNA: ATCCAGAGTGACGCAGCAGAAGAGTAGATGAAACGTTTTTTCGCCCGATAAAAGGGACGTGCGTCAGACATGGACACGGTGGCTTAGT
Question: Does B1 bind?
Answer: Result: binds
